Where a chain is given by its changes, count along the chain named.

In test [1] the target is T1, Human LIGHT stably expressed on EL4 cells (EL4-LIGHT) (human, UniProt O43557 1-240).
T1 construct: whole, on cells; also called membrane LIGHT
Briefly: flow cytometry, against F19 and F23. (Flow cytometry measures light scatter and fluorescence of single cells or particles in a stream.)

In test [2] the target is T1, Human LIGHT stably expressed on EL4 …. Briefly: flow cytometry, EL4-LIGHT cells. How it is done: The EC50 of the 7 mAbs were calculated from binding to EL4-LIGHT cells (FIG. 1). […] Non-linear regression analysis was performed to determine the functional binding affinity measurement or EC50 for each mAb. A range of functional affinities was observed.
In test [3] the target is Full length LIGHT G188A on HEK293FF cells (Homo sapiens (Human), UniProt O43557 1-240). Briefly: flow cytometry, HEK293FF, mAb at EC50. As to the method:
(§1) The day of transfection the cells were seeded in a 24-well plate at 0.6×10⁶ cells/well. Lipofectamine 2000 (ThermoFisher scientific), 3 ul, was mixed with 50 μl OptiMEM medium (GIBCO) and then added to 50 μl Opti-MEM medium containing 3 ug plasmid DNA and incubated for 20 min at RT to form DNA-Lipofectamine 2000 complexes which were then added to the HEK293FF cells and incubated at 37° C., 5% CO₂ for 24 hours. For each construct, in duplicate, 0.60×10⁶ cells/well were used in a 96 well round bottom plate. Cells were centrifuged for 3 minutes at 300×g at 4° C., the supernatant discarded and the cells washed with 150 μl FACS buffer (0.5% FBS in phosphate buffered saline). This process was repeated 3 times. […] The wells were washed 3 times as above and 50 μl/well of goat anti-human IgG FITC (1:1500 dilution in FACS buffer, SIGMA F9512-2ML) or goat anti-mouse APC (1/500 dilution in FACS buffer, BDBioscience 550826), as appropriate, was added to the wells and incubated for 30 min at 4° C. protected from the light, with shaking. The cells were then washed as above, resuspended in 100 μl of FACS buffer and binding of the antibodies to the constructs was measured using flow cytometry and a total of 10,000 cells were acquired for each sample. Controls of buffer and secondary antibody only as well as HEK293FF non transfected cells were also used.

For test [4], the target named is Full length LIGHT R189A on HEK293FF cells (Homo sapiens (Human), UniProt O43557 1-240). Briefly: flow cytometry, HEK293FF, mAb at EC50. How it is done: as §1
The target of test [5] is Full length LIGHT A190S on HEK293FF cells (Homo sapiens (Human), UniProt O43557 1-240). Briefly: flow cytometry, HEK293FF, mAb at EC50. How it is done: as §1
For test [6], the target named is Full length LIGHT T191A on HEK293FF cells (Homo sapiens (Human), UniProt O43557 1-240). Briefly: flow cytometry, HEK293FF, mAb at EC50. As to the method:
as §1

For test [7], the target named is Full length LIGHT S192A on HEK293FF cells (Homo sapiens (Human), UniProt O43557 1-240). Briefly: flow cytometry, HEK293FF, mAb at EC50. As to the method:
as §1

In test [8] the target is Full length LIGHT S193A on HEK293FF cells (Homo sapiens (Human), UniProt O43557 1-240). Briefly: flow cytometry, HEK293FF, mAb at EC50. How it is done:
as §1

For test [9], the target named is Full length LIGHT S194A on HEK293FF cells (Homo sapiens (Human), UniProt O43557 1-240). Briefly: flow cytometry, HEK293FF, mAb at EC50. How it is done:
as §1

For test [10], the target named is Full length LIGHT R195A on HEK293FF cells (Homo sapiens (Human), UniProt O43557 1-240). Briefly: flow cytometry, HEK293FF, mAb at EC50. How it is done:
as §1

Test [11] concerns the target Full length LIGHT V196A on HEK293FF cells (Homo sapiens (Human), UniProt O43557 1-240). Briefly: flow cytometry, HEK293FF, mAb at EC50. As to the method:
as §1

Test [12] has as its target Full length LIGHT W197A on HEK293FF cells (Homo sapiens (Human), UniProt O43557 1-240). Briefly: flow cytometry, HEK293FF, mAb at EC50. As to the method:
as §1

The target of test [13] is Full length LIGHT W198A on HEK293FF cells (Homo sapiens (Human), UniProt O43557 1-240). Briefly: flow cytometry, HEK293FF, mAb at EC50. How it is done: as §1
For test [14], the target named is T2, Human LIGHT-32L, on II23 cells (human, UniProt O43557 1-240).
T2 construct: also called II23-LIGHT 32L
T2 chain: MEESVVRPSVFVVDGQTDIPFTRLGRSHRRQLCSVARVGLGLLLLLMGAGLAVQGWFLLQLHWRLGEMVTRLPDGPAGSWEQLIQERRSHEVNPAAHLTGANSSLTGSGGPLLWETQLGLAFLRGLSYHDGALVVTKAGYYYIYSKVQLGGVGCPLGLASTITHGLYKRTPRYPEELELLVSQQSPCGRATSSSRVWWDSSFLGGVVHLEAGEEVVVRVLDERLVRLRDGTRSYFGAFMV
Briefly: flow cytometry on II23-LIGHT 32L cells, 4 ug mAb in 100 uL, goat anti-human Fc gamma-PE; signal as % of the commercial anti-LIGHT-PE. How it is done:
The cells were suspended at 1×10⁷ cells/ml and 100 uL aliquots were placed into wells of a 96-well plate, the cells spun down and washed in FACS buffer at 1800 rpm for 2 min. The cells were blocked with 1:100 dilution of anti-CD16/CD32 (eBioscience, San Diego, USA) in FACS buffer for 20 min at room temperature and then washed 1× in FACS buffer at 1800 rpm for 2 min. The cells were then resuspended in 100 uL FACS buffer+4 ug anti-membrane LIGHT mAbs or anti-LIGHT-PE (eBioscience, lot: E01621-1632) for 30 min in the dark at room temperature, followed by washing 1× in FACS buffer at 1800 rpm for 2 min and then resuspended in 100 uL FACS buffer plus 1:100 goat anti-human Fcγ-PE secondary antibody or no secondary antibody at 4° C. in the dark for 30 min. The cells were again washed 1× in FACS buffer at 1800 rpm for 2 min and fixed in 200 uL 2% paraformaldehyde overnight at 4° C. and read on a flow cytometer.

In test [15] the target is LIGHT without residues 81-84, stably expressed on EL4 cells (EL4-NC-LIGHT). Briefly: cell-based or functional assay.

Chain of Full length LIGHT W198A on HEK293FF cells (O43557 whole entry W198A): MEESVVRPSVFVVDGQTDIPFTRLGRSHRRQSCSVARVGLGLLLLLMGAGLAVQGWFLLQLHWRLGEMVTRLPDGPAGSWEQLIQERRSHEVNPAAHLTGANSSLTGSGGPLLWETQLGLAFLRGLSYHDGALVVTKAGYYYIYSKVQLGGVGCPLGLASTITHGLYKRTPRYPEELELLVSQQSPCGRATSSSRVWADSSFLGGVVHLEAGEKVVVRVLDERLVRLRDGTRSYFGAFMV
Chain of Full length LIGHT G188A on HEK293FF cells (O43557 whole entry G188A): as the sequence (O43557 whole entry W198A) above, with G188A, A198W counted along it
Chain of Full length LIGHT A190S on HEK293FF cells (O43557 whole entry A190S): as the sequence (O43557 whole entry W198A) above, with A190S, A198W counted along it
Chain of Full length LIGHT R195A on HEK293FF cells (O43557 whole entry R195A): as the sequence (O43557 whole entry W198A) above, with R195A, A198W counted along it
Chain of Full length LIGHT T191A on HEK293FF cells (O43557 whole entry T191A): as the sequence (O43557 whole entry W198A) above, with T191A, A198W counted along it
Chain of Full length LIGHT W197A on HEK293FF cells (O43557 whole entry W197A): as the sequence (O43557 whole entry W198A) above, with W197A, A198W counted along it
Chain of Full length LIGHT S194A on HEK293FF cells (O43557 whole entry S194A): as the sequence (O43557 whole entry W198A) above, with S194A, A198W counted along it
Chain of Full length LIGHT V196A on HEK293FF cells (O43557 whole entry V196A): as the sequence (O43557 whole entry W198A) above, with V196A, A198W counted along it
T1 sequence (O43557 whole entry): as the sequence (O43557 whole entry W198A) above, with A198W counted along it
Chain of Full length LIGHT S192A on HEK293FF cells (O43557 whole entry S192A): as the sequence (O43557 whole entry W198A) above, with S192A, A198W counted along it
Chain of Full length LIGHT R189A on HEK293FF cells (O43557 whole entry R189A): as the sequence (O43557 whole entry W198A) above, with R189A, A198W counted along it

B1: 3E09 chimeric IgG4 mAb (antibody, V domains shown)
VH: EVQLVESGGGLVKPGGSLKLSCEASGFTFSDYYMYWVRQTPEKRLEWVAAIGDGGIYTYYADTVKGRFTISRDNAKNILYLQMSSLKSNDTAMYYCARGTGDGFAYWGQGTLVTVS
VL: DIVLTQSPASLAVSLGQRATISCRASESVDSYGNSFMHWYQQKPGQPPKLLIYLASNLESGVPARFSGSGSRTDFTLTIDPVEADDAATYYCQQNNEDPYTFGGGTKLEIK
notes: Chimeric human IgG4 (S-to-P, L-to-E) with human CL, as m1; also called Parental 3E09
Take B1: in test [1], the “binding ratio, mAb to LIGHT trimer” value stood at 1 mAb per LIGHT trimer. The response in [2] was half-maximal at 10.4 nM (EC50). For the same molecule, the “% of WT binding” value in test [3] was 35%; in [4], 1%; in test [5] it was 97%; in test [6] it was 88%; in test [7], 50%; in test [8], 0%. Besides, the “% of WT binding” value was 1% in test [9]; 1% in test [10]; 34% in test [11]; 1% in test [12]; 48% in test [13]. The binding result in [14] is reported as “binds”.

B2: 3B04_var8 (antibody, V domains shown)
VH: QVQLVQSGAEVKKPGASVKVSCKASGYTFTDYEMHWVRQAPGQGLEWMGEIDPETGDTAYAQKFQGRVTLTADKSTSTAYMELSSLRSEDTAVYYCSRETDYFFDYWGQGTLVTVSS
VL: DIQMTQSPSSLSASVGDRVTITCGASENIYGALNWYQRKQGKAPKLLIYGATNLADGVPSRFSGSGSGRDYTLTISSLQPEDFATYYCQNVLTTPWTFGQGTKLEIKR
With B2, the “IC50, inhibition of IL-8 secretion, HT-29 + EL4-NC-LIGHT cells” value (shortened to “IC50, inhibition of IL-8 secretion”) in [15] is 0.05 nM.

B3: 3D12_var6 (antibody, V domains shown)
VH: B2 VH with G26D, Y32S, M34I, M48I, D57G, A61N
VL: B2 VL with F83V, T93S
B3: the “IC50, inhibition of IL-8 secretion” value in [15] stood at 0.47 nM.

B4: 3D12_var10 (antibody, V domains shown)
VH: B2 VH with G26D, Y32S, M34I, M48I, D57G, A61N
VL: B2 VL with R38Q, Q40P, F83V, T93S
As to B4, the “IC50, inhibition of IL-8 secretion” value in test [15] amounted to 0.44 nM.

B5: 3D12_var3 (antibody, V domains shown)
VH: B2 VH with G26D, Y32S, M34I, D57G
VL: B2 VL with K45Q, P59S, F83V, T93S
Turning to B5, in test [15], the “IC50, inhibition of IL-8 secretion” value is 0.53 nM.

B6: 3D12_var9 (antibody, V domains shown)
VH: B2 VH with G26D, Y32S, M34I, M48I, D57G, A61N, Q65K, V68A
VL: B2 VL with R38Q, Q40P, F83V, T93S
Take B6: the “IC50, inhibition of IL-8 secretion” value in test [15] turned out to be 0.71 nM.

B7: 3B04_var6 (antibody, V domains shown)
VH: B2 VH with M48I, A61S, L83F
VL: B2 VL
Turning to B7, the “IC50, inhibition of IL-8 secretion” value in [15] was 0.08 nM.

B8: 3D12_var1 (antibody, V domains shown)
VH: B2 VH with G26D, Y32S, M34I, M48I, D57G, A61N, Q65K, V68A
VL: B2 VL with K45Q, P59S, F83V, T93S
B8: the “IC50, inhibition of IL-8 secretion” value in [15] came to 0.33 nM.

B9: 3B04_var10 (antibody, V domains shown)
VH: B2 VH with M48I, A61S, L83F
VL: B2 VL with R38Q, Q40P
Regarding B9, in [15], the “IC50, inhibition of IL-8 secretion” value is 0.04 nM.

B10: 3B04_var1 (antibody, V domains shown)
VH: B2 VH with M48I, A61S, Q65K, V68A, L83F
VL: B2 VL with K45Q, P59S
As for B10, the “IC50, inhibition of IL-8 secretion” value in test [15] was found to be 0.05 nM.

B11: 3B04_var2 (antibody, V domains shown)
VH: B2 VH with M48I, A61S, L83F
VL: B2 VL with K45Q, P59S
In the case of B11, in test [15], the “IC50, inhibition of IL-8 secretion” value stood at 0.06 nM.

B12: 3D12_var5 (antibody, V domains shown)
VH: B2 VH with G26D, Y32S, M34I, M48I, D57G, A61N, Q65K, V68A
VL: B2 VL with F83V, T93S
As for B12, the “IC50, inhibition of IL-8 secretion” value in test [15] is 0.59 nM.

B13: 3B04_var4 (antibody, V domains shown)
VH: B2 VH
VL: B2 VL with K45Q, P59S
On to B13, for which the “IC50, inhibition of IL-8 secretion” value in test [15] amounted to 0.04 nM.

B14: 3D12_var2 (antibody, V domains shown)
VH: B2 VH with G26D, Y32S, M34I, M48I, D57G, A61N
VL: B2 VL with K45Q, P59S, F83V, T93S
Turning to B14, the “IC50, inhibition of IL-8 secretion” value in test [15] worked out at 0.74 nM.

B15: 3B04_var9 (antibody, V domains shown)
VH: B2 VH with M48I, A61S, Q65K, V68A, L83F
VL: B2 VL with R38Q, Q40P
B15: the “IC50, inhibition of IL-8 secretion” value in test [15] was 0.09 nM.

B16: 3B04_var12 (antibody, V domains shown)
VH: B2 VH
VL: B2 VL with R38Q, Q40P
B16: the “IC50, inhibition of IL-8 secretion” value in test [15] is 0.07 nM.

B17: 3D12_var7 (antibody, V domains shown)
VH: B2 VH with G26D, Y32S, M34I, D57G
VL: B2 VL with F83V, T93S
In the case of B17, the “IC50, inhibition of IL-8 secretion” value in test [15] came out at 0.54 nM.

B18: 3B04_var5 (antibody, V domains shown)
VH: B2 VH with M48I, A61S, Q65K, V68A, L83F
VL: B2 VL
As to B18, in test [15], the “IC50, inhibition of IL-8 secretion” value was 0.04 nM.

B19: 3D12_var11 (antibody, V domains shown)
VH: B2 VH with G26D, Y32S, M34I, D57G
VL: B2 VL with R38Q, Q40P, F83V, T93S
On to B19, for which the “IC50, inhibition of IL-8 secretion” value in [15] is 0.55 nM.

The values are drawn from patent publication US20210284747A1 (CAPELLA BIOSCIENCE, published 2021).
